The values that follow come from US20260151501A1, “ANTIBODY-DRUG CONJUGATE COMPRISING ANTI-CLAUDIN-18.2 ANTIBODY, AND THERAPEUTIC USE THEREOF FOR CANCER” (ABTIS CO., LTD., priority 2022, published 2026).

In test [1] the target is claudin18.2 protein (CLDN18.2) on CLDN18.2-positive cancer cell lines (MIA PaCa-2~CLDN18.2, SNU601, PATU8988S, NUGC-4) (UniProt P56856). In words: cell-based or functional assay.
The target is the same in test [2]. Kind of test: cell-based ELISA (OD 450 nm), SNU601 (CLDN18.2+) cells. Also on record: unit not given here.
The target is the same in test [3]. In words: cell-based ELISA (OD 450 nm), PATU8988S (CLDN18.2+) cells.
For test [4] the target is unchanged. Kind of test: cell-based ELISA (OD 450 nm), MIA PaCa-2 (CLDN18.2+) cells.
The target of test [5] is CLDN18.2~VLP (virus-like particle) expressing the claudin18.2 protein, CSB-MP005498HU (A5), CUSABIO (UniProt P56856). Kind of test: indirect ELISA (OD 450 nm) on coated CLDN18.2 VLP, regression in GraphPad Prism.
Test [6] addresses claudin18.2 protein (CLDN18.2) on CLDN18.2-positive cancer cell lines (MIA PaCa-2~CLDN18.2, SNU601, PATU8988S, NUGC-4) (UniProt P56856). In words: cell-based ELISA, PATU8988S (CLDN18.2+) cells; given as Kd, text calls it EC50.
Test [7] shares this target. Kind of test: cell-based ELISA, MIA PaCa-2 (CLDN18.2+) cells; given as Kd, text calls it EC50.
The target of test [8] is T1, claudin18.2 protein (CLDN18.2) (Homo sapiens, UniProt P56856).
T1 construct: purchased CUSABIO TECHNOLOGY LLC CSB-MP005498HU (A5)
Kind of test: Indirect ELISA binding to CLDN18.2 VLP. Conditions: CLDN18.2 (antigen protein) VLP, OD at 450 nm. The protocol: (§1) OD value measurement through ELISA was performed by measuring the absorbance at 450 nm using a UV-Vis spectrometer.
To confirm the binding strength to an antigen, a CLDN18.2˜VLP (virus-like particle) expressing the claudin18.2 protein (CLDN18.2) was prepared. At this time, CLDN18.2˜VLP is CSB-MP005498HU (A5) from CUSABIO TECHNOLOGY LLC.
After a 96-well plate was coated with the CLDN18.2 VLP for ELISA and treated with each of antibody-A and ADC-A, indirect ELISA was performed to measure OD values.
The measured results were used for a regression analysis in GraphPad PRISM® 9.0 software to calculate EC50 and Bmax. The antigen binding affinity of antibody-A, ADC-A, antibody-B, and ADC-B were evaluated based on the calculated values.

Test [9] has as its system MIA PaCa-2˜CLDN18.2 cell line. Kind of test: Cell-based ELISA binding to MIA PaCa-2˜CLDN18.2 cells. The protocol:
as §1
(§2) Four types of cell lines (MIA PaCa-2˜CLDN18.2, PATU8988S, parental MIA PaCa-2 (CLDN18.2-), and SNU601) were prepared. At this time, MIA PaCa-2˜CLDN18.2 and PATU8988S are CLDN18.2-positive pancreatic cancer cell lines. MIA PaCa-2 (CLDN18.2-) is a CLDN18.2-negative pancreatic cancer cell line. SNU601 is a CLDN18.2-positive gastric cancer cell line.
(§3) The prepared cell lines were cultured in DMEM containing 10% FBS and 1% penicillin/streptomycin (MIA PaCa-2˜CLDN18.2, MIA PaCa-2 (CLDN18.2-)), RPMI1640 containing 10% FBS and 1% penicillin/streptomycin (SNU601), and DMEM containing 5% FBS, 5% serum, 1% penicillin/streptomycin, and 2 mM L-glutamine (PATU8988S) in an incubator under the conditions of 37° C. and 5% CO2.
(§4) The prepared cell lines were plated on 96-well plates for culture, and then treated with each of antibody-A, ADC-A, antibody-B, and ADC-B. Thereafter, cell-based ELISA was performed, and OD values were measured.
(§5) The measured results were used for a regression analysis in GraphPad PRISM® 9.0 software to calculate EC50 and Bmax. The cell binding affinity of antibody-A, ADC-A, antibody-B, and ADC-B to each cell line was evaluated based on the calculated values.

The next test concerns SNU601 cell line. Kind of test: Cell-based ELISA binding to SNU601 cells. Conditions: SNU601 (CLDN18.2+). The protocol: as §1, §2, §3, §4, §5
Another test deals with PATU8988S cell line. In words: Cell-based ELISA binding to PATU8988S cells. The settings on record: PATU8988S (CLDN18.2+). The protocol: as §1, §2, §3, §4, §5
The subject of test [10] is MIA PaCa-2 (CLDN18.2-) cell line. In words: Cell-based ELISA binding to MIA PaCa-2 (CLDN18.2-) cells. Conditions: CLDN18.2 negative cell line. The protocol: as §1, §2, §3, §4, §5

Sequence of ADC-B (antibody-B conjugated with MMAE) (VH): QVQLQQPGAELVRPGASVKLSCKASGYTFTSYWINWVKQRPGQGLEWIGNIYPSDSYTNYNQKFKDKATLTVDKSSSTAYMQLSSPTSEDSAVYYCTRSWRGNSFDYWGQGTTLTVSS
Sequence of ADC-B (antibody-B conjugated with MMAE) (VL): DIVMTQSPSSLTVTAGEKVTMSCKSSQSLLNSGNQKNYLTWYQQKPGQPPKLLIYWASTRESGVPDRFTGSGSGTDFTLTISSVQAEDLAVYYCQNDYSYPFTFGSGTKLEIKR
Sequence of Antibody-B (zolbetuximab antibody) (VH): as the sequence (VH) above
Sequence of Antibody-B (zolbetuximab antibody) (VL): as the sequence (VL) above

The substance ADC-B (antibody-B conjugated with MMAE) came in with an IC50 (nM), cell viability (CellTiter-Glo), MIA PaCa-2 (CLDN18.2+) in test [1] of 2.12 nM. The IC50 (nM), cell viability (CellTiter-Glo), NUGC4 (CLDN18.2+) in test [1] was 20 nM. Besides, the IC50 (nM), cell viability (CellTiter-Glo), PATU8988S (CLDN18.2+) in test [1] came to 7.19 nM. This substance yielded an IC50 (nM), cell viability (CellTiter-Glo), SNU601 (CLDN18.2+) in test [1] of 10.4 nM. Also, the Bmax turned out to be 2.8 in test [2], 2.33 in test [3], 3.33 in test [4] and 2.87 in test [5]. Moreover, the dissociation constant Kd in test [6] came to 10.5 nM; in [7], 0.065 µg/mL.
In the case of Antibody-B (zolbetuximab antibody), the Bmax in [2] came to 1.7; in [3], 1.21; in test [4], 3.05; in [5] it was 2.13. In test [6], this substance displayed a Kd of 12.5 nM.
With “zolbetuximab [Antibody-B, reference compound]”, the Bmax is given as 2.134 in test [8], 3.053 in test [9], 1.701 in the test on SNU601 cell line and 1.214 with PATU8988S cell line. Further, the “binding to parental MIA PaCa-2” value in test [10] is “none of the test substances bound”.
